What was measured:
[1] = target: Human Id1: Histidine (human) (UniProt P41134); experiment: ELISA, coated antigen; reference human Id1
[2] = target: Human Id1: Histidine (human) (UniProt P41134); experiment: sandwich ELISA, 5-3-coated wells, human Id1:His 5.0 ng/ml, detected with rabbit polyclonal B-5133-HRP
Mouse Id1: Histidine [3] = target: T1, Mouse Id1: Histidine (mouse, UniProt P20067-2 1-148); experiment: ELISA, coated antigen; reference mouse Id1
T1 construct: E. coli fusion protein (vector pGW07); also called m-Id1-His; not shown: His-tag
T1 sequence: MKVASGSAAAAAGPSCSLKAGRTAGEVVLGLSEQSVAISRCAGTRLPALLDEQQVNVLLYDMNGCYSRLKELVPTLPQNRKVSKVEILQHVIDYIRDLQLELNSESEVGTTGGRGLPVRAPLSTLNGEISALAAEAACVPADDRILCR

[4] = target: Human Id1: Histidine (human) (UniProt P41134); experiment: ELISA, coated antigen, Ab 0.50 ug/ml
[5] = target: T2, glutathione S-transferase (GST) (UniProt P08515 1-218 = GST); experiment: ELISA, coated antigen, Ab 0.25 ug/ml
T2 construct: Coated on wells as control for the fusion partner of the immunogen
T2 sequence (P08515 whole entry, the tested form may be a part): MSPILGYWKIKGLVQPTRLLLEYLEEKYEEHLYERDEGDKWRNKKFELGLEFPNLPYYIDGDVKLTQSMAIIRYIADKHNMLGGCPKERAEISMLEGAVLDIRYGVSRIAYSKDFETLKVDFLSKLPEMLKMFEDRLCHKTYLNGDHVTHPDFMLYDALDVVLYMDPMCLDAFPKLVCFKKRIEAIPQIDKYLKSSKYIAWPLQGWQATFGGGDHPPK
Description: (§1) Incubate plates at 2-8° C. overnight (16-24 hours). [0145] 11. Shake off the BSA solution. [0146] 12. Dispense 250 μL of 2.5% sucrose solution into each well. [0147] 13. Incubate plates at 2-8° C. for 4 hours. [0148] 14. Shake off sucrose solution. [0149] 15. Dry in vacuum at room temperature overnight. Screening Method [0150] 1. Dispense 100 μL of antibody diluent, diluted rabbit polyclonal anti-Id1 into appropriate wells. […] 2. Incubate at room temperature with mechanical shaking at 750 rpm for 90 minutes. [0152] 3. Remove the incubation mixture by flicking plate content into an appropriate waste container, followed by rinsing the wells 5 times with distilled water. […] 4. Strike the wells sharply onto absorbent paper or paper towels to remove all residual water droplets. [0154] 5. Dispense 100 μL of Goat Anti-Rabbit IgG-HRP Conjugate Reagent into each well. Gently mix for 5 seconds. [0155] 6. Incubate at room temperature with mechanical shaking at 750 rpm for 90 minutes. […] 7. Repeat procedures 3 and 4. [0157] 8. Dispense 100 μL of TMB Reagent into each well. Gently mix for 5 seconds. [0158] 9. Incubate at room temperature with mechanical shaking at 750 rpm for 20 minutes. [0159] 10. Add 100 μL of Stop Solution (1N HCl) into each well. [0160] 11. Gently mix for 10 seconds to ensure a complete mixing. […] 12. Read optical density (absorbance) at 450 nm. Results from this assay were used to select the rabbit sera with the highest antibodies titer that selectively reacts with mouse Id1 or human Id1 or both.
(§2) A comparison was carried out between the reactivity of the rabbit monoclonal anti-mouse Id1, clone #BCH-1/#37-2, of this invention and the mouse monoclonal anti-mouse/human Id1 from BD Pharmingen with the following antigens prepared in Example 5: mouse Id1:His, human Id1:His, human Id2:His, human Id3:His, and GST. These antigens and protein were used to coat the wells.
(§3) Materials and methods were those described in Example 9 except (a) Pharmingen's mouse monoclonal anti-mouse Id1 was used in addition to the rabbit monoclonal anti-mouse Id1 (Example 10), and (b) goat anti-mouse IgG-HRP conjugate was used to process the wells treated with the Pharmingen monoclonal antibody and polyclonal goat anti-rabbit IgG-HRP conjugate was used to process wells treated with rabbit monoclonal anti-mouse Id1.

Mouse Id1: Histidine [6] = target: T1, Mouse Id1: Histidine; experiment: ELISA, coated antigen, Ab 0.25 ug/ml
Description: as §1, §2, §3

Human Id2: Histidine [7] = target: T3, Human Id2: Histidine (human, UniProt Q02363 1-134, limits assumed); experiment: ELISA, coated antigen, Ab 0.25 ug/ml
T3 construct: E. coli fusion protein (vector pGW07); also called h-Id2: His; not shown: His-tag
T3 sequence (looked up): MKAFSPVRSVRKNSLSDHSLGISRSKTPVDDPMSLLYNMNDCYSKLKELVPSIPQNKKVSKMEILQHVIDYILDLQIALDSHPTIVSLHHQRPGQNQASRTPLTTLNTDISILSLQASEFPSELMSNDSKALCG
Description: as §1, §2, §3

Human Id3: Histidine [8] = target: T4, Human Id3: Histidine (human, UniProt Q02535 1-119, limits assumed); experiment: ELISA, coated antigen, Ab 0.25 ug/ml
T4 construct: E. coli fusion protein (vector pGW07); also called h-Id3: His; not shown: His-tag
T4 sequence (looked up): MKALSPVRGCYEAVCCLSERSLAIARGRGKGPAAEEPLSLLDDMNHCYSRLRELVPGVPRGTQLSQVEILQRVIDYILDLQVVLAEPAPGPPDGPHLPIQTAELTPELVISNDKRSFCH
Description: as §1, §2, §3

[9] = target: T2, glutathione S-transferase (GST); experiment: ELISA, coated antigen, Ab 10.0 ug/ml
Description: as §1, §2, §3

Mouse Id1: Histidine [10] = target: T1, Mouse Id1: Histidine; experiment: ELISA, coated antigen, Ab 10.0 ug/ml
Description: as §1, §2, §3

Human Id2: Histidine [11] = target: T3, Human Id2: Histidine; experiment: ELISA, coated antigen, Ab 10.0 ug/ml
Description: as §1, §2, §3

Human Id3: Histidine [12] = target: T4, Human Id3: Histidine; experiment: ELISA, coated antigen, Ab 10.0 ug/ml
Description: as §1, §2, §3

[13] = target: T2, glutathione S-transferase (GST); experiment: ELISA, coated antigen, Ab 0 ug/ml (blank)
Description: as §1, §2, §3

Mouse Id1: Histidine [14] = target: T1, Mouse Id1: Histidine; experiment: ELISA, coated antigen, Ab 0 ug/ml (blank)
Description: as §1, §2, §3

Human Id2: Histidine [15] = target: T3, Human Id2: Histidine; experiment: ELISA, coated antigen, Ab 0 ug/ml (blank)
Description: as §1, §2, §3

Human Id3: Histidine [16] = target: T4, Human Id3: Histidine; experiment: ELISA, coated antigen, Ab 0 ug/ml (blank)
Description: as §1, §2, §3

Sequence of Human Id1: Histidine (human) (P41134 whole entry): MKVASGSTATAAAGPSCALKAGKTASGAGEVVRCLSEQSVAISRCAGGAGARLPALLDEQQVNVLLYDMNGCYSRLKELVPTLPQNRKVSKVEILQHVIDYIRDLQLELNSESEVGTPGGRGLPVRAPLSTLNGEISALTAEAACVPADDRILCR

rabbit monoclonal anti-human Id1, clone #BCH-2/#5-3 (antibody)
Cross-reactivity (%) [1]: 100%
A450 [2]: 0.365 A450

rabbit monoclonal anti-mouse/human Id1, clone #BCH-1/#195-14 (antibody)
Cross-reactivity (%) (Mouse Id1: Histidine [3]): 100%

B1: rabbit monoclonal anti-mouse Id1, clone #BCH-1/#37-2 (antibody, V domains shown)
VH: QSVEESGGRLVTPGTPLTLTCKVSGFDINSYAMDWFRQAPGKGLEWIGMMSTRGNTYYTSWAKGRFTISKTSSTTVDLKMTSLTTEDTATYFCARGGLWGPGTLVTVSS
VL: RVLTQTASPVSAAVGGTVTINCQASQSVYNGNRLGWYQLKPGQSPKELIHDASTLASGVPSRFRGSGSGTQFTLTINDVQCDDAATYYCVGSYACSTGDCNVFGGGTEVVVK
notes: Rabbit IgG from hybridoma, Protein G purified; also called m Id1 MoAb 37-2; Rabbit Monoclonal Anti-Mouse Id1 (#37-2)
A450 [4]: 0.091 A450
A450 [5]: 0.051 A450
A450 (Mouse Id1: Histidine [6]): 2 A450
A450 (Human Id2: Histidine [7]): 0.049 A450
A450 (Human Id3: Histidine [8]): 0.047 A450
A450 [9]: 0.108 A450
A450 (Mouse Id1: Histidine [10]): 3.27 A450
A450 (Human Id2: Histidine [11]): 0.115 A450
A450 (Human Id3: Histidine [12]): 0.113 A450
A450 [13]: 0.047 A450
A450 (Mouse Id1: Histidine [14]): 0.047 A450
A450 (Human Id2: Histidine [15]): 0.045 A450
A450 (Human Id3: Histidine [16]): 0.046 A450

Source: US20060286609A1 (BIOCHECK, published 2006)
